# Results from PMC5910447, “Efficient production of secretory Streptomyces clavuligerus β-lactamase inhibitory protein (BLIP) in Pichia pastoris” (AMB Express, 2018).
# B1: β-Lactamase inhibitory protein (BLIP), recombinant, secreted by P. pastoris (EAEAEF-mature BLIP) (natural protein, Streptomyces clavuligerus)
# chain: EAEAEFAGVMTGAKFTQIQFGMTRQQVLDIAGAENCETGGSFGDSIHCRGHAAGDYYAYATFGFTSAAADAKVDSKSQEKLLAPSAPTLTLAKFNQVTVGMTRAQVLATVGQGSCTTWSEYYPAYPSTAGVTLSLSCFDVDGYSSTGFYRGSAHLWFTDGVLQGKRQWDLV
# notes: peptide left at the N-terminus after Kex2 cleavage of the α-factor mating signal; the blip gene's own terminator was kept, so no C-terminal vector tags are expected (calculated mass 18,219.25 matches EAEAEF-mature BLIP); also called recombinant BLIP; P. pastoris-expressed BLIP; source: P. pastoris X-33 (pPICZαA/BLIP, methanol induction), secreted; recovered from the culture supernatant without …
# Biological target: T1, TEM-1 β-lactamase (UniProt P62593 24-286)
# T1 construct: TEM-1 β-lactamase (class A); whether the construct carries a tag or its signal peptide is not known; also called TEM-1 enzyme; source: E. coli haboring pRSET-K/TEM-1 β-lactamase (lab stock); production procedure in Additional file 1: Methods
# Experiment: enzyme inhibition assay (nitrocefin hydrolysis, free β-lactamase against inhibitor concentration); 1.5 nM TEM-1 β-lactamase pre-incubated with 0–15 nM BLIP in 50 mM sodium phosphate buffer with 1 mg/mL bovine serum albumin for 2 h at 25 °C; then 21 μM nitrocefin, absorbance at 500 nm; nonlinear fit to Eq. 1; Ki* (equilibrium dissociation constant) equivalent to Ki
# T1 sequence (P62593 24-286): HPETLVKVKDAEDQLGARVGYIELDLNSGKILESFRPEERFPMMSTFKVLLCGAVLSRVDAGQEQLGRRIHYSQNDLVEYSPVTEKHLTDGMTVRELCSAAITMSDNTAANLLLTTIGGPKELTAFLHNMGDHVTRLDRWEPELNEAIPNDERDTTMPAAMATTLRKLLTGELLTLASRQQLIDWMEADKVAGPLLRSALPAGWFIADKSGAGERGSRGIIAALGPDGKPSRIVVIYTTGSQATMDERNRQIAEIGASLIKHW
binder,measurement,value
B1,Ki,0.55 ± 0.07 nM
